Experimental data as given in US20230257791A1.

Molecular target: recombinant gp140 from the clade C strain 92BR025 (HIV antigen), Sino Biological, Inc. (HIV, clade C strain 92BR025)
Assay: SPR, Biacore T200; gp140 immobilized, GRFT as analyte at 12.5-400 nM; heterogeneous ligand model; mean ± SD of replicates

Chain of recombinant gp140 from the clade C strain 92BR025 (HIV antigen), Sino Biological, Inc. (HIV, clade C strain 92BR025) (O12164 32-677): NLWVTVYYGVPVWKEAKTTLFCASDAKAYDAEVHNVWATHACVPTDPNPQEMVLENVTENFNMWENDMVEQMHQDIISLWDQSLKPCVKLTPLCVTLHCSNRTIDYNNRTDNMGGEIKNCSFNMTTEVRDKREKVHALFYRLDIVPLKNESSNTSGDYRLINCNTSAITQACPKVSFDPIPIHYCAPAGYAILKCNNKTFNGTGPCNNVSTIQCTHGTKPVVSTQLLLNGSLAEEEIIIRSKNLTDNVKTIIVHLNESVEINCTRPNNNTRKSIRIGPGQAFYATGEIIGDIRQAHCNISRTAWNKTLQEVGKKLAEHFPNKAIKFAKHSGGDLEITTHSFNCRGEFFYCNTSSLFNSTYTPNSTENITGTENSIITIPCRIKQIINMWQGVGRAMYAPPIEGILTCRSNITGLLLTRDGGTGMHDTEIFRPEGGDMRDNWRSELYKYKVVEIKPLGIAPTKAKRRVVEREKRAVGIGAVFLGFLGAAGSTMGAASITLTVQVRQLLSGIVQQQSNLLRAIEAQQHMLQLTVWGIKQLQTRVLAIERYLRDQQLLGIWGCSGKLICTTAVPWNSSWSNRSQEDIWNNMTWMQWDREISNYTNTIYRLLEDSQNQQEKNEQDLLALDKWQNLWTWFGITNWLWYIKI

## precipitation-purified Griffithsin (GRFT), recombinant, expressed in E. coli strain DLF_0025 from plasmid pHC-Kan-phoAp-GRFT (from UniProt P84801 1-121)
  Kd: 4.4 nM
